Common to all, as to settings: both partners purified
The target of test [1] is T1, AnkB_R13-24 (C-terminal 12 ANK repeats of AnkB) (human, UniProt Q01484-2 430-827).
T1 construct: numbers count on: human 220 kDa AnkB NM_020977.3; also called AnkB C-terminal 12 repeats; source: E. coli BL21 (DE3), purified (Ni2+-NTA, size exclusion)
T1 sequence (looked up): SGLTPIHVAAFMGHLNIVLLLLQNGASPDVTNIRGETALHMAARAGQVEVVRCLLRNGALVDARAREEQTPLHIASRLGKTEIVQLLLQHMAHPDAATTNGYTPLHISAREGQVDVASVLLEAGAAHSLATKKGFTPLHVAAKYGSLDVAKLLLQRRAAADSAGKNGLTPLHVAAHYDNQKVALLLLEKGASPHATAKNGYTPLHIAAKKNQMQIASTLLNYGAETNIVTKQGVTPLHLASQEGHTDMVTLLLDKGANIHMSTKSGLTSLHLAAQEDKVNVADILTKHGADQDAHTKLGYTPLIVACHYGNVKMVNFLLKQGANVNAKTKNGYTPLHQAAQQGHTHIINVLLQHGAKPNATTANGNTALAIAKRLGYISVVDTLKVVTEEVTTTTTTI
As to the kind of experiment: crystal structure; one natural chain AnkB 430-873; the linker folds back on the repeats of the same chain; crystals grown at 16 °C.

Test [2] has as its target T2, AnkB_MBD (AnkB ANK repeats only, aa 28–827) (human, UniProt Q01484-2 28-827).
T2 construct: ankyrin-B (AnkB), human 220 kDa isoform, residues 28-827: the 24 ANK repeats (MBD), no linker; numbers count on: human 220 kDa AnkB NM_020977.3; Poor quality in 100 mM NaCl buffer; also called AnkB 28–827; source: E. coli BL21 (DE3), purified (Ni2+-NTA, size exclusion)
T2 sequence (looked up): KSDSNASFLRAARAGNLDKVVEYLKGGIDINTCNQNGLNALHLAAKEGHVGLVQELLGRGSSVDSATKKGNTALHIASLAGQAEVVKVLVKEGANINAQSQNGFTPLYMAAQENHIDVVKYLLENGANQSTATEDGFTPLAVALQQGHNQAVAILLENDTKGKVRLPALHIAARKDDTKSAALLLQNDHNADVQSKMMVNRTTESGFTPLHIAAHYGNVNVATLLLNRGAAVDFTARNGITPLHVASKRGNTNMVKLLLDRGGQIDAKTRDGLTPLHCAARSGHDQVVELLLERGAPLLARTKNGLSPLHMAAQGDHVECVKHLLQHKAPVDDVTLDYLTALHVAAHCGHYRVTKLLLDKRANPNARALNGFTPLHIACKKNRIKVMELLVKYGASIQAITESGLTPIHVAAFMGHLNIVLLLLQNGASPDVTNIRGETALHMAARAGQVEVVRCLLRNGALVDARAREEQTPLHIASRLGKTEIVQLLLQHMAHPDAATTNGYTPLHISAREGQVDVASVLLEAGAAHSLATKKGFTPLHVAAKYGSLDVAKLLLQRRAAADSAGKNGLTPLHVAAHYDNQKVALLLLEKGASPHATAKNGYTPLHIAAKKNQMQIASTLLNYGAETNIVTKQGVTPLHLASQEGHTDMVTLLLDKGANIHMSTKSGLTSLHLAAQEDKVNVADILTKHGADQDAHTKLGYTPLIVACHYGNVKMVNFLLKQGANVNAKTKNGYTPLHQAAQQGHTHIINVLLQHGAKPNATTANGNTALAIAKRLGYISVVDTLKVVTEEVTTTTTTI
As to the kind of experiment: ITC; VP-ITC MicroCal, 25 °C; proteins in 50 mM Tris-HCl pH 7.8, 1 mM DTT, 1 mM EDTA with 100 mM or 500 mM NaCl as required; who was titrated is not told. In general terms: ITC needs no label: the signal is the heat of the interaction.

The next test deals with T3, AnkB_MBD Asn595Ala (human, UniProt Q01484-2 28-827, Asn595Ala).
T3 construct: ankyrin-B (AnkB), human 220 kDa isoform, MBD 28-827 with N595A in a finger loop; numbers count on: human 220 kDa AnkB NM_020977.3; source: E. coli BL21 (DE3), purified (Ni2+-NTA, size exclusion)
T3 sequence (looked up): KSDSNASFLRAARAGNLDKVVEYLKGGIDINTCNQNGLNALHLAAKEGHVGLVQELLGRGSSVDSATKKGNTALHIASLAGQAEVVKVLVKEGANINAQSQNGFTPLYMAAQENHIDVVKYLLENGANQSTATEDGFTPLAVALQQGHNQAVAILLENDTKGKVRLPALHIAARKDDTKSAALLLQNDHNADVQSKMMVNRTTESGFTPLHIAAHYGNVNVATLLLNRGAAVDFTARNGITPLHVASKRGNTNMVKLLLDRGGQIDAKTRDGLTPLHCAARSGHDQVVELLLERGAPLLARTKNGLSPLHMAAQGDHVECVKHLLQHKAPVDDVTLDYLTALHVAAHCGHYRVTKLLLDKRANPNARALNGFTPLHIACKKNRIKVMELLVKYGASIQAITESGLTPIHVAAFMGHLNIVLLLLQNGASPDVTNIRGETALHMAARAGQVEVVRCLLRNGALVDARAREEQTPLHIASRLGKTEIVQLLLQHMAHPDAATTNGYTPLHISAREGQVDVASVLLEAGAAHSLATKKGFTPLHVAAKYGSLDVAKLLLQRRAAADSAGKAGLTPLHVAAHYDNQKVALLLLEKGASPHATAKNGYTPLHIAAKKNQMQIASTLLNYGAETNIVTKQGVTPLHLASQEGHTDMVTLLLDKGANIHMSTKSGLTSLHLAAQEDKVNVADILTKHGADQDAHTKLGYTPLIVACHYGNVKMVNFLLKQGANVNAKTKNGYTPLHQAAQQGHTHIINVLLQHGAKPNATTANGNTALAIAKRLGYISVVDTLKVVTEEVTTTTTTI
The test is described as above.

B1: AnkB 46-residue linker after the ANK repeats (aa 828–873, holds AI-c), as crystallised (domain or fragment, human, UniProt Q01484-2 828-873, looked up)
chain: TEKHKLNVPETMTEVLDVSDEEGDDTMTGDGGEYLRPEDLKELGDD
notes: Thr828 to Asp847 defined in the map; numbers count on: human 220 kDa AnkB NM_020977.3; Contiguous with m23 on one natural chain; also called folded back linker; source: E. coli BL21 (DE3), purified (Ni2+-NTA, size exclusion)
Take B1: the binding result in test [1] is “binds”.

B2: AnkB_AI-c (aa 828–852) (domain or fragment, human, UniProt Q01484-2 828-852, looked up)
chain: TEKHKLNVPETMTEVLDVSDEEGDD
notes: numbers count on: human 220 kDa AnkB NM_020977.3; source: E. coli BL21 (DE3), purified (Ni2+-NTA, size exclusion)
In the case of B2, the binding result (in test [2]; with AnkB_MBD Asn595Ala) was “binds” each time.

For the origin of these results see article PMC5779224, “Autoinhibition of ankyrin-B/G membrane target bindings by intrinsically disordered segments from the tail regions” (eLife, 2017).
